A short description of this data set: soluble on expression in E. coli; label from the status in PepcDB or PDB records.
For the sequence “MAEKRKLLAEIDKCFKKIDEGVELFEETMEKMHEANSDNQRDKYQDDLKKEIKKLQRLRDQVKNWQNASEIKDKDKLNSYRKLIEQRMEQFKDVERENKTKPHSKLGLSAEEKLDPKEKEKAETMDWIQHQIRSLNEEVDRTEMQLESLSNTDTGKGKRGKKEDAKTKNEREKRVEGLKHHLERINFHIEKLEICMRMISNESLNAKMVLETLKEPIETYVEMMNEEDSEEADNYDPDDAYDELNLEKLCQQIGGVNVASVDDEHRENGHELGIDTAESGAVSGSRHTSGENGQPPSPAGRRIVPLSMPSPHAVTPELKRLASKDSNVDRPRTPPVTPASAAPPPPGIPYNSVAAGRSTTTPVPSTPISANSPAPSLAQAAPIAAASPVFPPAAAAASKPVLAQSVSEMPQKKESITSTTSRGSAAAPATTTTTTTTTTSSEPAEVPLVVQQTVSETFVNGVDSPAAATRLTQQERQQQLQQQHHHQSTIIPTTPTTTTTSSSMLGGMMSTDDPAAALQAALNMAAASQQAVATGPKRAHIPAWLGASPLGRTSMTQEFDGQLAALELACAKATFPLDSEKPRNYLSKVSFPVPSWYGQTAPNTSDSLEYYLRLAPDTLFFIFYYMEGTRAQLLAAKALKKLSWRFHTKYLTWFQRHEEPKQITDDYEQGTYVYFDFEKWSQRKKESFTFEYKFLEDKEFD”, the “soluble on expression in E. coli” value is “not soluble”.
For the sequence “MAEMSEKTPELGDALRVGARVLVRRPSETAATGAAVEDCADLVPAQDRGHEWAPVPRWAVALDDGRLVFADTEDLTVNPSPGAPEGEIGKAVEPK”, the “soluble on expression in E. coli” value is “not soluble”.
Take “MAEVITLSDDDDDVIPLTPRPPVVLKTSTTANHGNNSQATVHVSTGKNLNFDQIGIRRLSDVYNKNQPAFRGNEIPTGIRNSRPSLPATAILQNPQFLVQLAAKGLKRPFSSVHSTPAVVPSTSIQRTRNNQNAGNTPNIYKGHYMFEATESYEPSRRSSRYNTKKIEGKFMCSYNPTKCYKLCGSVVEVINHIWAHVIHDPPLPPIEKKESKDDGMFSCLLRNSDAAQLAENSALSLKRLQTCQFCNAVFRTVHLKTIHVVKCHMEQDHLDTTCNICELDFGNSIALNTHMKKHISGEAPYNCQKCKYRTSVRAFFYQHFIEKHSNETLLCPICLHHEDLRPNVRRSKHIFVREFVNHMRSHALGPQMRCHVCALTFTSRLLLEAHRTNDHTMLNSLWQVIERKSVHETEREHMSKRNKIGLLQRRFFETLEGRRINDEVACAGDKEREGFDLTTTGDTLFECECGFKSWNGNRTASHYHKCRRSINDIERKREIVRLGSDPKEELELFAVYPQPTNTEAETEEATLRKIHLERGDPLPILEDIVYQPIDDLPLLKMLSKNHDKSLEIMEKCTASAVTTED”: the “soluble on expression in E. coli” value is on record as “not soluble”.
With “MAFDDLRSFLQALDDHGQLLKISEEVNAEPDLAAAANATGRIGDGAPALWFDNIRGFTDARVAMNTIGSWQNHAISLGLPPNTPVKKQIDEFIRRWDNFPIAPERRANPAWAQNTVDGEEINLFDILPLFRLNDGDGGFYLDKACVVSRDPLDPDNFGKQNVGIYRMEVKGKRKLGLQPVPMHDIALHLHKAEERGEDLPIAITLGNDPIITLMGATPLKYDQSEYEMAGALRESPYPIATAPLTGFDVPWGSEVILEGVIESRKREIEGPFGEFTGHYSGGRNMTVVRIDKVSYRSKPIFESLYLGMPWTEIDYLLEHHHHHH” the entry was “not soluble”; with “MAFELSPSDLEPLLQGACFFGSGGGGTMISARHLAANFRKGDYYPTDKVRVVDVDEATDGDCVMVAYMGAPDAINQVQWPNGPVEAALAARQRLESQGRKLAYVVAPESGALGFVVASLVAAKLGLAVVDADGAGRAVPSLPMLTYAAAGVPPTPAFLAGESGLCVELGVRMPPPDGQRREDISTVVEQMLRPILTNPQFGQFGGLAMWMMSPAQLGGALPVRGTLSRALKLGRALQDGKVKTAEAMLDFLRRELDIKGKLLFGPATLASSEVSTAGGFDLGKVVLEDGERRCTVLYQNESLLAWDSALSHPLATAPDAISYFVEGEGQHVFSNGDLSGNDHGLDPSVRGRKAAVIALPAAAPLSEGLILQSFADELAQLGYLGPYAPVDAGREGARLEHHHHHH”, “soluble”.
Turning to “MAFLSTSVLIKCCILLLAGGLAESLTLGLAPALSTHSSGVSTQSVDLSQIKRGDEIQAHCLTPAETEVTECAGILKDVLSKNLHELQGLCNVKNKMGVPWVSVEELGQEIITGRLPFPSVGGTPVNDLVRVLVVAESNTPEETPEEEFYAYVELQTELYTFGLSDDNVVFTSDYMTVWMIDIPKSYVDVGMLTRATFLEQWPGAKVTVMIPYSSTFTWCGELGAISEESAPQPSLSARSPVCKNSARYSTSKFCEVDGCTAETGMEKMSLLTPFGGPPQQAKMNTCPCYYKYSVSPLPAMDHLILADLAGLDSLTSPVYVMAAYFDSTHENPVRPSSKLYHCALQMTSHDGVWTSTSSEQCPIRLVEGQSQNVLQVRVAPTSMPNLVGVSLMLEGQQYRLEYFGDH”, the “soluble on expression in E. coli” value is recorded as “soluble”.
In the case of “MAFNGAMSVGAQISDAVILAHSPKSCTHIMYQTISSAGRRTLFERGALLPVSLAPNLESTDMGEAEMIFGGMEKLEEKILELKARQPRAIVVVSACPAGIIGDDIGRTRRFSEPGLPVVTLKTDGNLAGDYLQGMLMAYTSLARQVIRLEHHHHHH”, the “soluble on expression in E. coli” value is on record as “not soluble”.
The entry for “MAFNQRTVVMIGPGEHYVTAKNEVIKTLLGSCVAVCLYDPKAQVIGMNHFLLAADRRKFTHFLDSRAGYYGVHAMEILINAMLKRGAQRKYLQSKIFGGANVLSLCADNILNHYDIGGMNIDFVRHFLQRERIPIISEDIGGHCGRVIYFDPTDYSVYRSLIEHKYEEIASLQDEEYRYFNQASEDIHSSGVPVVIWSD” is “soluble”; for “MAGDPMATLTRLFIHPVKSMRGIGLTHALADVSGLAFDRIFMITEPDGTFITARQFPQMVRFTPSPVHDGLHLTAPDGSSAYVRFADFATQDAPTEVWGTHFTARIAPDAINKWLSGFFSREVQLRWVGPQMTRRVKRHNTVPLSFADGYPYLLANEASLRDLQQRCPASVKMEQFRPNLVVSGASAWEEDSWKVIRIGDVVFDVVKPCSRCIFTTVSPEKGQKHPAGEPLKTLQSFRTAQDNGDVDFGQNLIARNSGVIRVGDEVEILATAPAKIYGAAAADDTANITQQPDANVDIDWQGQAFRGNNQQVLLEQLENQGIRIPYSCRAGICGSCRVQLLEGEVTPLKKSAMGDDGTILCCSCVPKTALKLTRLEHHHHHH” it is “not soluble”; for “MAGDPMQQSDVISAAKKYMESIHQNDYTGHDIAHVYRVTALAKSIAENEGVNDTLVIELACLLHDTVDEKVVDANKQYVELKSFLSSLSLSTEDQEHILFIINNMSYRNGKNDHVTLSLEGQIVRDADRLDAIGAIGVARTFQFAGHFGEPMWTEHMSLDKINDDLVEQLPPSAIKHFFEKLLKLESLMHTDTAKMIAKERHDFMMMYLKQFFTEWNYHDLEHHHHHH” it is “soluble”.
With “MAGDPMRFQKIPMNIYEKFHRTFSGSNQDTFNVCSKCGGACEHNKIGTLLPGEKEYMAKKMGMSLSEFKLKYLDVLKMDDGTLIHVLKLGELCPFLNTETELCECRDFKPVICKIYPVVFTVESGKVKFSIDDWCQLSRKKVCRNYFESVIPLLYRLPVPVEWFRHVVSYDDLYFDYDQLRESRKGKSRYAVFTLKELLNFQKEELACHEIETYEPETGRMELYEIKVTSPNIDFCSEIEEPTFLEHHHHHH”, the “soluble on expression in E. coli” value is given as “soluble”.
With “MAGDPMSLKSYSTPTYWQRVKVACQYLFPQLPITRLAGWLAEQKWGMVTHFIIRIFAKQYNVNLAEAEKTNPADYTTFNEFFLRPLKENARPINQDDQAVCLPADGKISELGQINENRLLQAKGHYFTLETLLANDEEMAESFKNGSFITTYLSPRDYHRVHMPCDATLKKMIYVPGDLFSVNSFLAEHIPNLFARNERVICEFETAFGPMVQILVGATITASISTVWAGIINPPRSKDVVEYNYQTTGETAIHLKKGDEMGAFRLGSTVINLFPQATVELVSHLQAGVETRMGERFAKIIKLEHHHHHH” the entry was “soluble”; with “MAGDPMVNRETLIARIEQELVQAEQAQHDHDFEKHMYAIHILTSLYASTSNTPHIGEQQMNRRIANHNQMPQSQITQPTHQVTAAEIEAMGGKVNTHSAHHHNKSYSQPSNQQQRLATDDDIGNGESIFDFLEHHHHHH”, “not soluble”.
The entry for “MAGDPMVTQNKKILIITGSFGNGHMQVTQSIVNQLNDMNLDHLSVIEHDLFMEAHPILTSICKKWYINSFKYFRNMYKGFYYSRPDKLDKCFYKYYGLNKLINLLIKEKPDLILLTFPTPVMSVLTEQFNINIPVATVMTDYRLHKNWITPYSTRYYVATKETKQDFIDVGIDPSTVKVTGIPIDNKFETPINQKQWLIDNNLDPDKQTILMSAGAFGVSKGFDTMITDILAKSANAQVVMICGKSKELKRSLTAKFKSNENVLILGYTKHMNEWMASSQLMITKPGGITITEGFARCIPMIFLNPAPGQELENALYFEEKGFGKIADTPEEAIKIVASLTNGNEQLTNMISTMEQDKIKYATQTICRDLLDLIGHSSQPQEIYGKVPLYARFFVKLEHHHHHH” is “not soluble”; for “MAGDPMWKTDVKLNADKFRKIDVHSHIQVLGYPFNVSITPQEFLSLMEAYNIEVAIISDVDNENIAKIVREYPDKLVGIYWANPRDKNSIKEAEKFLEKFEFRGIKLHPLLNMFSPADPKVEDIMRIAEEFNVHVQVHSGHPPTSLPWQIEELARKFPEVKIVMVHMGHGNAYYIQGAIEVAERNENVYLETSGMPMPSKIAEAYKVAPKRVVFGIDLPCHHPVVEIAKVLTSGLDEKGMERVFYENAKVLLLEHHHHHH” it is “not soluble”; for “MAGDPNSMFSPQASAAYDDLHEGYATYTGSGYSGGAFLLDPIPSDMEITAINPADLNYGGVKAALAGSYLEVEGPKGKTTVYVTDLYPEGARGALDLSPNAFRKIGNMKDGKINIKWRVVKAPITGNFTYRIKEGSSRWWAAIQVRNHKYPVMKMEYEKDGKWINMEKMDYNHFVSTNLGTGSLKVRMTDIRGKVVKDTIPKLPESGTSKAYTVPGHVQFPELEHHHHHH” it is “soluble”.
Consider “MAGDYSYDAVKREYVIGSDMTSYAHEVFAAAKPMDIRHNDLPQPDSVIDVTVSTTEWPEGDSNYPINPKLVFTNHSNVAIPGGSTIEFLMPTSSGDIVKDWSGAGLKVIESGHTGSNFSVNGEKKLFHKVAVTLRSTETIPAGGEYSVDMVYYTPVSGVANGVRFIVGNETVGLKKDFPTLPALEHHHHHH”, for which the “soluble on expression in E. coli” value is recorded as “soluble”.
In the case of “MAGFMKNAMSYLGMSDVVDDEDDYIEEDEEQKPASKSAFDSDHTVTPLASTTAPAASSTTKPFPGGRVNRITTIHPKSYEDAQLVGRALRDGVPVVLNLTGVAEAVAYRIVDFSAGVVFGVRGSLERVTPRVFLLSPAQVNIKVEEPTKPASAHDLFADAAALEHHHHHH”, the “soluble on expression in E. coli” value was “not soluble”.
Turning to “MAGIAMKLAKDREAAEGLGSHERAIKYLNQDYETLRNECLEAGALFQDPSFPALPSSLGFKELGPYSSKTRGIEWKRPTEICADPQFIIGGATRTDICQGALGDSWLLAAIASLTLNEEILARVVPLDQSFQENYAGIFHFQFWQYGEWVEVVVDDRLPTKDGELLFVHSAEGSEFWSALLEKAYAKINGCYEALSGGATTEGFEDFTGGIAEWYELRKPPPNLFKIIQKALEKGSLLGCSIDITSAADSEAVTYQKLVKGHAYSVTGAEEVESSGSLQKLIRIRNPWGQVEWTGKWNDNCPSWNTVDPEVRANLTERQEDGEFWMSFSDFLRHYSRLEICNLTPDTLTCDSYKKWKLTKMDGNWRRGSTAGGCRNYPNTFWMNPQYLIKLEEEDEDDEDGERGCTFLVGLIQKHRRRQRKMGEDMHTIGFGIYEVPEELTGQTNIHLSKNFFLTTRARERSDTFINLREVLNRFKLPPGEYVLVPSTFEPHKNGDFCIRVFSEKKADYQTVDDEIEANIEEIEANEEDIGDGFRRLFAQLAGEDAEISAFELQTILRRVLAKREDIKSDGFSIETCKIMVDMLDEDGSGKLGLKEFYILWTKIQKYQKIYREIDVDRSGTMNSYEMRKALEEAGFKLPCQLHQVIVARFADDELIIDFDNFVRCLVRLEILFKIFKQLDPENTGTIQLDLISWLSFSVLGKLAAALEHHHHHH”, the “soluble on expression in E. coli” value is “soluble”.

The record behind these values is the DeepSol protein solubility set.
